Reference: US20160271244A1

Biological target: Env (gp120) of HIV-1 JRCSF.N160K (HIV-1), P20871
Assay: cell-based or functional assay

B1: CH01 (antibody, V domains shown)
VH: EVQLVESGANVVRPGGSLRLSCKASGFIFENFGFSWVRQAPGKGLQWVAGLNWNGGDTRYADSVKGRFRMSRDNSRNFVYLDMDKVGVDDTAFYYCARGTDYTIDDAGIHYQGSGTFWYFDLWGRGTLVSVSS
VL: EIVLTQSPGTLSLSPGERATLSCRASHNVHPKYFAWYQQKPGQSPRLLIYGGSTRAAGIPGKFSGSGSGTDFTLTISRVDPEDFAVYYCQQYGGSPYTFGQGTKVEI
IC50 (virus neutralization): > 50 µg/mL
IC80 (virus neutralization): > 50 µg/mL
